Assay results as given in US20080064052A1, “Crystal of a Receptor-Ligand Complex and methods of use” (priority 2006, published 2008).

What was measured:
[1] = target: T1, human EphB4 ephrin-binding domain, EphB4 (17-196) (human, UniProt P54760 17-196); assay: ITC at 25 °C
T1 sequence: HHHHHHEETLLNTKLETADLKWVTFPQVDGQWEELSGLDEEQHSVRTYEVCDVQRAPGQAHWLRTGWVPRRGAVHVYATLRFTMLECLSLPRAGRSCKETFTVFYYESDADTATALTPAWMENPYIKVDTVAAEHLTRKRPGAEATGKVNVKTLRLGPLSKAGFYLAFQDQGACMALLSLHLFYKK
Protocol: (§1) Experiments were performed at 25° C. in 50 mM Tris pH 7.8, 150 mM NaCl, 1 mM CaCl₂.
(§2) Isothermal titration calorimetry and ELISA experiments: EphB4and ephrin-B2 were either dialyzed or buffer exchanged into 50 mM Tris-Cl (pH 7.8 at 25° C.), 150 mM NaCl, 1 mM CaCl₂, prior to use in calorimetry experiments. Peptides were dissolved into the same buffer used for the dialysis of EphB4. The concentration of EphB4, ephrin-B2 and the peptides was determined by measuring the A₂₈₀ and using the theoretical-extinction coefficient (Gill and von Hippel, 1989). ITC experiments were performed with a Microcal MCS ITC at 25° C. Following an initial injection of 2 μl, titrations were performed by making 20 13 μl injections of peptide into EphB4 in the sample cell to produce an approximate final 2:1 ratio of injectant to sample in the cell. […] Corrections for heats of dilution for the peptides and ephrin-B2 were determined by performing titrations of peptide or ephrin-B2 solutions into buffer. […] Titration data were analyzed using Origin ITC software (Version 5.0, Microcal Software Inc.) and curves were fit to a single binding site model (Wiseman et al., 1989). […] A lower limit for the binding constant was determined by performing a titration in which the sample cell contained 30 μM EphB4 and the injection syringe contained a 1.45 mM solution of the peptide, producing a final ratio of peptide to EphB4 of 10:1.

[2] = target: T2, mouse EphB4 ectodomain Fc fusion protein (mouse EphB4-Fc-His, R&D Systems) (mouse, UniProt P54761 16-539); assay: competition ELISA: inhibition of mouse ephrin-B2 AP binding to immobilized mouse EphB4 ectodomain Fc
T2 construct: extracellular domain; also called murine EphB4; not shown: Fc part of a bought fusion protein; His tag of the bought protein
T2 sequence (looked up): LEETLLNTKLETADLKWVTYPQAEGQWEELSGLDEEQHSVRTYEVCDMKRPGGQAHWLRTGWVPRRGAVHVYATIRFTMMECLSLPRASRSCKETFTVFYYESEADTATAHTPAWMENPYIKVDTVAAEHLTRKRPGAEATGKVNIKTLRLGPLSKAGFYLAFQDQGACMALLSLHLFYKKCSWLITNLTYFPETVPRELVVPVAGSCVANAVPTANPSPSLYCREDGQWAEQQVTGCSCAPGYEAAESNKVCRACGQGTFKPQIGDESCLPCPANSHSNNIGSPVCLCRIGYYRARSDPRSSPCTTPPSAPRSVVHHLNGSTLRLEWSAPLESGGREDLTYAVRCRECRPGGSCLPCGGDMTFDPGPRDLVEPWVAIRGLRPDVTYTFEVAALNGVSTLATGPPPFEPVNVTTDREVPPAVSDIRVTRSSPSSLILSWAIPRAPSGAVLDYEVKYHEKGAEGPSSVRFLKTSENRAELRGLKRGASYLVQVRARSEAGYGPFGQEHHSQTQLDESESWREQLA
Protocol: (§3) The ability of peptides to compete the binding of mouse ephrin-B2 alkaline phosphatase to immobilized mouse EphB4-Fc-His (R&D Systems) was measured by ELISA as previously described (Koolpe et al., 2005).

[3] = target: T1, human EphB4 ephrin-binding domain, …; assay: ITC at 25 °C, peptide injected into human EphB4 (17-196)
Protocol: Isothermal titration calorimetry and ELISA experiments: EphB4and ephrin-B2 were either dialyzed or buffer exchanged into 50 mM Tris-Cl (pH 7.8 at 25° C.), 150 mM NaCl, 1 mM CaCl₂, prior to use in calorimetry experiments. Peptides were dissolved into the same buffer used for the dialysis of EphB4. The concentration of EphB4, ephrin-B2 and the peptides was determined by measuring the A₂₈₀ and using the theoretical-extinction coefficient (Gill and von Hippel, 1989). ITC experiments were performed with a Microcal MCS ITC at 25° C. Following an initial injection of 2 μl, titrations were performed by making 20 13 μl injections of peptide into EphB4 in the sample cell to produce an approximate final 2:1 ratio of injectant to sample in the cell. For most titrations the sample cell contained 15 μM EphB4 and the injection syringe contained a 200 μM solution of the peptide. Titrations with ephrin-B2 contained 13 μM EphB4 in the sample cell and 290 μM ephrin-B2 in the syringe. Prior to loading the sample cell, EphB4 was centrifuged at 18,000 g for 5 min at 4° C. to remove aggregates and degassed for 5 minutes at room temperature. Corrections for heats of dilution for the peptides and ephrin-B2 were determined by performing titrations of peptide or ephrin-B2 solutions into buffer. Dilution data were fit to a line and subtracted from the corresponding titration data. Titration data were analyzed using Origin ITC software (Version 5.0, Microcal Software Inc.) and curves were fit to a single binding site model (Wiseman et al., 1989). […] A lower limit for the binding constant was determined by performing a titration in which the sample cell contained 30 μM EphB4 and the injection syringe contained a 1.45 mM solution of the peptide, producing a final ratio of peptide to EphB4 of 10:1. The data was fit assuming a stoichiometry of 1 and at least 60% saturation of binding at the final peptide concentration (Turnbull and Daranas, 2003).

[4] = target: T1, human EphB4 ephrin-binding domain, …; assay: ITC at 25 °C, 1.45 mM peptide injected into 30 µM human EphB4 (17-196)
Protocol: as §1, §2

[5] = target: T2, mouse EphB4 ectodomain Fc fusion …; assay: competition ELISA: inhibition of mouse ephrin-B2 AP binding to immobilized mouse EphB4 ectodomain Fc; text sentence that cites Table 1A; same ELISA
Protocol: as §3

| Binder | fold reduction in affinity (against the peptides that keep Tyr-P3) [1] [fold] | IC50 [2] [nM] | Kd [3] [nM] | TΔS [3] [kcal/mol] | ΔG [3] [kcal/mol] | ΔH [3] [kcal/mol] | ΔH [4] [kcal/mol] | IC50 [5] [nM] |
| --- | --- | --- | --- | --- | --- | --- | --- | --- |
| LFSPNGPIARAW (TNYL-RAW without Thr-P1, Asn-P2 and Tyr-P3) [LFSP-RAW peptide (LFSPNGPIARAW)] | 40 | ~15000 | 3500 | 2.1 | -7.4 | -5.3 |  |  |
| TNYLFSPNGPIA [TNYL peptide (TNYLFSPNGPIA)] |  | 150000 |  |  |  |  | -9.6 |  |
| TNYLFSPNGPIARAW (Synthetic 15-mer (Biopeptide, Inc.); Peptide positions are printed as P1 to P15; also called antagonistic peptide) [TNYL-RAW peptide (TNYLFSPNGPIARAW)] |  | 15 | 71 | -4.9 | -9.8 | -14.7 |  | ~15 |
